In assay [1] the target is human LAP-TGFβ1 overexpressed on cells (human, UniProt P01137 30-390). As to the kind of experiment: cell-based or functional assay.
The target of assay [2] is T1, fusion protein of a human IgG1 Fc domain and rat LAP-TGFβ1 (human; rat, UniProt P17246 30-390, limits assumed).
T1 construct: also called rat LAP-TGFβ-Fc
As to the kind of experiment: BLI, 2:1 model, component 2. How it is done: (§1) The 20E6_H0.2aL1_IgG1 antibody was biotinylated using EZ-Link SulfoNHS-LC-Biotin (ThermoFisher). A streptavidin-functionalized tip was equilibrated in binding buffer (10 mM sodium phosphate, 150 mM sodium chloride, 1% (w/v) bovine serum albumin, 0.05% (w/v) sodium azide, pH 7.4) and dipped in a 10 μg/mL solution of biotinylated anti-LAP in binding buffer for 30 seconds to load the tip with antibody. The antibody-loaded tip was then washed in binding buffer and placed in a solution containing 0-24 nM of a fusion protein having a human IgG1 Fc domain fused to either human LAP-TGFβ1, human LAP-TGFβ2 or human LAP-TGFβ3. The antigen was allowed to bind to antibody for 5 minutes (association phase), and then the tip was moved to binding buffer (dissociation phase). The association and dissociation phases were fit to a 2:1 heterogenous ligand binding model to determine the binding rate constants. As shown in FIG. 21A and Table 17, 20E6_H0.2aL1_IgG1 bound with sub-nanomolar affinity to human LAP-TGFβ1, but not to human LAP-TGFβ2 (FIG. 21B) or LAP-TGFβ3 (FIG. 21C).
The binding of 20E6_H0.2aL1_IgG1 antibody and 20E6_H0.2aL1_hIgG4mut antibody to LAP-TGFβ1 of various species was examined by bio-layer interferometry using the method described in Example 12, except that the antibody-loaded tip was placed in a solution containing 0-24 nM of a fusion protein having a human IgG1 Fc domain fused to either mouse, rat, cynomolgus monkey, or human LAP-TGFβ1.
On the technique in general: BLI is a label-free optical method that tracks binding on a fibre tip over time.

For assay [3], the target named is T2, soluble complex of the extracellular domain of human GARP and human LAP-TGFβ1 (human, UniProt Q14392 20-627).
T2 construct: extracellular domain; also called sGARP-LAP-TGFβ1; sGARP-LAP
Nature of the assay: BLI, component 1. How it is done: A streptavidin-functionalized tip was equilibrated in binding buffer (10 mM sodium phosphate, 150 mM sodium chloride, 1% (w/v) bovine serum albumin, 0.05% (w/v) sodium azide, pH 7.4) and dipped in a 5 μg/mL solution of biotinylated antibody (i.e., 20E6_H0.2aL1_hIgG1, murine 16F4, or MHG8, a GARP-specific murine IgG2a described in Lienart et al. Science 2018; 362:952-956) in binding buffer for 30 seconds to load the tip with antibody. The antibody-loaded tip was then washed in binding buffer and placed in a solution containing 0-24 nM of a fusion protein containing a human IgG1 Fc domain fused to either human LAP-TGFβ1, the soluble GARP-LAP-TGFβ1 complex, or the soluble ECR3E-LAP-TGFβ1 complex. The antigen was allowed to bind to antibody for 5 minutes (association phase), and then the tip was moved to binding buffer (dissociation phase). The binding and dissociation data for 16F4 and MHG8 were well-fit by a 1:1 binding model. The association and dissociation phases for 20E6_H0.2aL1_hIgG1 antibody were fit to a 2:1 heterogenous ligand binding model to determine the binding rate constants.
As shown in FIG. 24 and Table 21, the 20E6_H0.2aL1_hIgG1 antibody bound to free LAP-TGFβ1 and the soluble GARP-LAP-TGFβ1 complex with nanomolar affinity, but not to the ECR3E-LAP-TGFβ1 complex. As expected, the anti-GARP antibody (MHG8) bound to the GARP-LAP-TGFβ1 complex, but not to free LAP-TGFβ1 or the ECR3E-LAP-TGFβ1 complex. 16F4 bound tightly to all three constructs.

In assay [4] the target is T3, fusion protein of a human IgG1 Fc domain and human LAP-TGFβ3 (human, UniProt P10600 24-412).
T3 construct: also called Fc-huB3; human LAP-TGFβ3-Fc
T3 sequence: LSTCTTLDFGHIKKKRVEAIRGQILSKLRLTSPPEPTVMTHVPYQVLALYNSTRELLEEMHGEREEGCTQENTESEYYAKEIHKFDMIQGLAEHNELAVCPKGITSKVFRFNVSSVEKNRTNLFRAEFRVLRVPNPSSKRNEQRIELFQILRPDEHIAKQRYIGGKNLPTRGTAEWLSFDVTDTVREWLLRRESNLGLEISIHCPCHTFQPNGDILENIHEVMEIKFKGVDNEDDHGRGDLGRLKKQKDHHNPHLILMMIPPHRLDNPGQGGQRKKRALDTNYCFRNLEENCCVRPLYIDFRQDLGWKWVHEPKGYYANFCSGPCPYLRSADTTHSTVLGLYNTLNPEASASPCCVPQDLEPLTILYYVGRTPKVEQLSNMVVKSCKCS
As to the kind of experiment: bio-layer interferometry, biotinylated antibody on streptavidin tip, Fc-huB3 in solution. How it is done:
as §1

T1 sequence (P17246 30-390 limits assumed): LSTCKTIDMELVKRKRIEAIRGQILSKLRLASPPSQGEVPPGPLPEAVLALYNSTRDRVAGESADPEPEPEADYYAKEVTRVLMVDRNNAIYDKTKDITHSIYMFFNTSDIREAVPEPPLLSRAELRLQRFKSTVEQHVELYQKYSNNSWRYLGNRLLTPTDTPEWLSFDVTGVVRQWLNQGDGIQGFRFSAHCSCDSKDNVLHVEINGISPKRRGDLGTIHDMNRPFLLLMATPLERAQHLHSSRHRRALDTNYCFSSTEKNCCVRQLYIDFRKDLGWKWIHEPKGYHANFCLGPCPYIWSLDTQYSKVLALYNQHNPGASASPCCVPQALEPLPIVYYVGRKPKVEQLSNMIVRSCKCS
T2 sequence (chain, as listed by the source limits assumed, chain 1 of 2): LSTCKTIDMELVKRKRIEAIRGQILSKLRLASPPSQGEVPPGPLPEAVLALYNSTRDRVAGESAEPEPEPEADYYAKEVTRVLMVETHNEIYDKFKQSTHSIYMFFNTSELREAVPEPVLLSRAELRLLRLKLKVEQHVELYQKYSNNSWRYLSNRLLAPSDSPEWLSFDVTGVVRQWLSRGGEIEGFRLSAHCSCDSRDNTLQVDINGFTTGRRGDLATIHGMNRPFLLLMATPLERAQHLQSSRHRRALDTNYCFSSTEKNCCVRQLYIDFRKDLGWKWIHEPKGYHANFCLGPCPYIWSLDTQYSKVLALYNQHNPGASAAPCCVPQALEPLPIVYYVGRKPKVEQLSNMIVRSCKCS
T2 sequence (Q14392 20-627 limits assumed, chain 2 of 2): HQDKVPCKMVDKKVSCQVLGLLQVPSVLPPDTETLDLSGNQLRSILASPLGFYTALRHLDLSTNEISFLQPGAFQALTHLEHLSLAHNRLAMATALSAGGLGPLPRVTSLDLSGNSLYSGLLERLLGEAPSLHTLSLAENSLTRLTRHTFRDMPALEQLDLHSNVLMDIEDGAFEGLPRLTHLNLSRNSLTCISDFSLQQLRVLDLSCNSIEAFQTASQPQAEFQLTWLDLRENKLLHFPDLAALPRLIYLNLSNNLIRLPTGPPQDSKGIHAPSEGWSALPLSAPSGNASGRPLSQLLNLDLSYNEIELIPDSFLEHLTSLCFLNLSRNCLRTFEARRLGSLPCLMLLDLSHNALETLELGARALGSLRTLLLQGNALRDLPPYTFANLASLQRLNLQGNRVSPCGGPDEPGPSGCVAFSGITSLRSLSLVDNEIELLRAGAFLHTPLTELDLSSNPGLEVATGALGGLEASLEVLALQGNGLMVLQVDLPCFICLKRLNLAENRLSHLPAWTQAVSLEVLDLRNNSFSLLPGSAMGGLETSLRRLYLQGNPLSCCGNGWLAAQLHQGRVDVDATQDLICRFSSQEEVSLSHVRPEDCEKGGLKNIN
Chain of human LAP-TGFβ1 overexpressed on cells (P01137 30-390): as the sequence (chain, as listed by the source limits assumed, chain 1 of 2) above

B1: 22F9_hIgG1 (antibody, V domains shown)
VH: QVQLQQPGAELVKPGASVKLSCKASGYTFTSYWMHWVKQRPGQGLEWIGMIHPNSGSTNYNEKFKSKATLTVDKSSSTAYMQLSSLTSEDSAVYYCAYYDYDGFFDVWGTGTTVTVSS
VL: DIVLTQSPASLDVSLGQRATISCRASKSVSTSGYSYMHWYQQKSGQPPKLLIYLASNLESGVPARFSGSGSGTHFTLNIHPVEEEDAATYYCQHSRELPYTFGGGTKLEIK
For B1, in assay [1], the “Inhibition of human TGFβ1 activation (IC50)” value was 3.9 mg/L.

B2: 20E6_H0.2aL1_hIgG1 (antibody)
heavy: not shown
light: DIQMTQSPSSLSASVGDRVTITCRASQDITNYLNWYQQKPGKAVKLLIYYTSRLHSGVPSRFSGSGSGTDYTLTISSLQPEDFATYFCQQGDTLPWTFGQGTKLEIKRTVAAPSVFIFPPSDEQLKSGTASVVCLLNNFYPREAKVQWKVDNALQSGNSQESVTEQDSKDSTYSLSSTLTLSKADYEKHKVYACEVTHQGLSSPVTKSFNRGEC
notes: also called 20E6_H0.2aL1_IgG1; humanized 20E6
Turning to B2, in assay [2], the Kd (in general, a measure of binding affinity in units of concentration) was found to be 0.68 nM; the koff (usually the first-order rate constant of dissociation) stood at 0.000768 s⁻¹; the kon (in general, the second-order rate constant of association) was found to be 1.14e+06 M⁻¹ s⁻¹. Moreover, in assay [3], the Kd is 18.7 nM, the koff stood at 0.0518 s⁻¹ and the kon amounted to 2.77e+06 M⁻¹ s⁻¹. For the same molecule, in assay [4], the binding result was “no binding (tested: 24 nM)”.

The values are drawn from patent publication US20220017612A1 (TILOS THERAPEUTICS, published 2022).
